Data on 1 molecule can be found in doi:10.1101/2021.04.06.21255004, “Hemoglobin Interacts with Endothelial Nitric Oxide Synthase to Regulate Vasodilation in Human Resistance Arteries” (medRxiv, 2021).

The target of the assay is T1, purified human alpha globin (human, UniProt P69905 1-142, biotinylated using EZ-Link NHS-PEG4 Biotinylation Kit).
T1 construct: hemoglobin subunit alpha, human; called full-length alpha globin in the discussion; Immobilised through biotin on streptavidin biosensors; also called full-length alpha globin; source: purified
Put plainly: BLI; Octet RED96; biotinylated alpha globin immobilised on streptavidin biosensors; analyte in solution, 120 s association, 120 s dissociation in assay buffer. Conditions: both partners purified. A general note: Biolayer interferometry detects binding as a change in optical thickness at a sensor tip.

T1 sequence (P69905 whole entry): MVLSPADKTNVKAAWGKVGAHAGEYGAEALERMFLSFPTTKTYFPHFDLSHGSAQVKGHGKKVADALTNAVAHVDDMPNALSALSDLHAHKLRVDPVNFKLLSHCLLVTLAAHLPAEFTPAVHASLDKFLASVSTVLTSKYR

B1: alpha hemoglobin stabilizing protein (natural protein, UniProt Q9NZD4 1-102, looked up)
chain: MALLKANKDLISAGLKEFSVLLNQQVFNDPLVSEEDMVTVVEDWMNFYINYYRQQVTGEPQERDKALQELRQELNTLANPFLAKYRDFLKSHELPSHPPPSS
notes: alpha hemoglobin stabilizing protein; also called AHSP
Molecule B1 displayed a Kd of 109 nM.

The Kd is the concentration at which binding is half-saturated. A high value points to weaker binding.
